According to US20240400614A1, “CLEAVABLE PEPTIDES AND METHODS OF USE THEREOF” (Bright Peak Therapeutics AG, priority 2023, published 2024):
Square brackets hold non-standard residues; d marks the D form. Ends that are not written are not given here. Tyr(3-NO2) = N[C@@H](Cc1ccc(O)c([N+](=O)[O-])c1)C(=O)O; Nle = CCCC[C@H](N)C(=O)O; 2Abz = Nc1ccccc1C(=O)O

Assays:
Assay type in all cases: biochemical
uPA = uPA (Homo sapiens, UniProt P00749); test: FRET peptide cleavage efficiency with uPA; conditions: 200 uM linker, 1 ug/ml protease, 37° C., buffer A pH 8.5
matriptase = target: T1, matriptase (Homo sapiens, UniProt Q9Y5Y6); test: FRET peptide cleavage efficiency with matriptase; conditions: 200 uM linker, 1 ug/ml protease, 37° C., buffer B pH 9.0
T1 construct: purchased R&D Systems 3946-SEB
T1 sequence (Q9Y5Y6 615-855 limits assumed): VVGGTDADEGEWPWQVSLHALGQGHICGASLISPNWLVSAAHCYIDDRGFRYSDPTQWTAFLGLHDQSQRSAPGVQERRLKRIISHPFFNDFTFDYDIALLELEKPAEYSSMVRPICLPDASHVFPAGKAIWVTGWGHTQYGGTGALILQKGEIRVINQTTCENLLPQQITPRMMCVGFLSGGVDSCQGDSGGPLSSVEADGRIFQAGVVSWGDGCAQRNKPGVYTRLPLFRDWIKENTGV

MMP-2 = target: T2, MMP-2 (Homo sapiens, UniProt P08253); test: FRET peptide cleavage efficiency with MMP-2; conditions: 200 uM linker, 1 ug/ml protease, 37° C., buffer C pH 7.5
T2 construct: purchased SIGMA PF023
T2 sequence (P08253 110-660): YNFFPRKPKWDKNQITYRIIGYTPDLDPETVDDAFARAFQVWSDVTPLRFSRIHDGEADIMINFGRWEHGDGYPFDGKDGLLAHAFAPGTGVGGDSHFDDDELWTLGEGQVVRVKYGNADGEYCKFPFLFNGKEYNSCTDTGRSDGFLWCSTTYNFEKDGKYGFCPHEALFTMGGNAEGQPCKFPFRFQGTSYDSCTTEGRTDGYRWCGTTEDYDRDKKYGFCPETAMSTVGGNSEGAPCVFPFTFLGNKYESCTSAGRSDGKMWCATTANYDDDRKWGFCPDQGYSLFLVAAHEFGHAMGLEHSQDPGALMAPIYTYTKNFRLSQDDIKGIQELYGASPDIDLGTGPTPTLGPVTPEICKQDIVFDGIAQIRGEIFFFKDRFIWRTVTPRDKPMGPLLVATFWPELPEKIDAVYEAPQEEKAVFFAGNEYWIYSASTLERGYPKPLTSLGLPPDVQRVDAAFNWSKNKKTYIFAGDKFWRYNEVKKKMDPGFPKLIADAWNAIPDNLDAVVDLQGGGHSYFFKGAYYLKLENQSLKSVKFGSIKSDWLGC

Substance	% cleavage uPA t = 15 min (uPA) [%]	% cleavage uPA t = 60 min (uPA) [%]	% cleavage uPA t = 120 min (uPA) [%]	% cleavage Matriptase t = 15 min (matriptase) [%]	% cleavage Matriptase t = 60 min (matriptase) [%]	% cleavage Matriptase t = 120 min (matriptase) [%]	% cleavage MMP-2 t = 15 min (MMP-2) [%]	% cleavage MMP-2 t = 60 min (MMP-2) [%]	% cleavage MMP-2 t = 120 min (MMP-2) [%]
RQRRSAPLGLAG ([2Abz]RQRRSAPLGLAG[Tyr(3-NO2)]-NH2) [LNK009]	0	1	3	71	45	31	72	99	99
SGRVLGPLNLSG ([2Abz]SGRVLGPLNLSG[Tyr(3-NO2)]-NH2) [LNK008]	1	1	2	20	72	92	71	99	99
RQRRSVVGG ([2Abz]RQRRSVVGG[Tyr(3-NO2)]-NH2) [LNK029]	0	0	1	96	96	98	0	0	0
SGRVLPAGLVG ([2Abz]SGRVLPAGLVG[Tyr(3-NO2)]-NH2) [LNK007]	0	0	1	23	79	97	99	95	94
SGRVLRKAGPAGLVG ([2Abz]SGRVLRKAGPAGLVG[Tyr(3-NO2)]-NH2) [LNK013]	0	2	6	99	94	94	99	99	100
SGRVLTLRKAGPAGLVG ([2Abz]SGRVLTLRKAGPAGLVG[Tyr(3-NO2)]-NH2) [LNK011]	6	17	35	99	99	99	98	99	98
RQRRS-Nle-PLGLAG ([2Abz]RQRRS[Nle]PLGLAG[Tyr(3-NO2)]-NH2) [LNK025]	0	1	2	97	84	77	64	97	98
SPLGLAGS ([2Abz]SPLGLAGS[Tyr(3-NO2)]-NH2) [LNK030]	0	0	0	0	0	0	67	100	99
SGRVLTLRKAGPANLVG ([2Abz]SGRVLTLRKAGPANLVG[Tyr(3-NO2)]-NH2) [LNK012]	0	15	34	99	99	98	97	97	94
KLFSSKQ ([2Abz]KLFSSKQ[Tyr(3-NO2)]-NH2) [LNK072]	–	–	–	–	–	–	1	13	25
